In one data set the target is T1, GST-YoeB fusion protein (Escherichia coli, UniProt P69348).
T1 construct: made in house; host or cells: E. coli BL21(DE3) pLysS
T1 sequence (P69348 1-84): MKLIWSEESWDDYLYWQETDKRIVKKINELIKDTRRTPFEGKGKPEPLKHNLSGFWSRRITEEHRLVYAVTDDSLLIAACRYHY
Briefly: Peptide array analysis of YefM tridecamer peptides probed with GST-YoeB. It is filed as binding, E. coli. The procedure:
Peptide array analysis: Tridecamer peptides corresponding to consecutive overlapping sequences of the YefM polypeptide were arrayed on a cellulose membrane matrix and covalently bound to a Whatman 50 cellulose support (Whatman). Approximately 50 μg aliquots of soluble GST-YoeB fusion were examined for their selective peptide binding ability, on the basis of YefM-YoeB putative interaction.
For low stringency binding the cellulose membrane was briefly washed in 100% ethanol, washed three times with Tris-buffered saline (TBS; 50 mM Tris-HCl pH 7.5, 150 mM NaCl), then blocked for 4 hours using 5% (w/v) non-fat milk in TBS. The membrane was then washed three times in TBS+0.1% (v/v) tween 20 (TBS-T) and incubated with 10 ml GST-YoeB solution at 4° C. and slow shaking for 14 hours.
For high stringency binding the washing steps were extensive and multiple and the blocking solution washing step was reduced to a single brief wash.
Following incubation, the membrane was washed once in TBS-T then supplemented with 10 ml suspension comprising TBS, mouse anti-GST antibody and horseradish peroxidase conjugated goat anti-mouse antibody in the appropriate titers. Following 1 hour incubation at room temperature the membrane was briefly washed with TBS-T and TBS. Bound GST-YoeB proteins were detected through an enhanced chemiluminescence reaction following an exposure to a sensitive film.

Data set [1] deals with E. coli TOP10. Briefly: Growth rate analysis of bacteria overexpressing YefM, YoeB or both. The note with it: 0.2% L-arabinose induction compared with 0.2% glucose control, LB-Amp, 37° C.
Experimental: (§1) The generated constructs were introduced to E. coli strain TOP10.
Growth rate analysis: E. coli TOP10 bacteria transformed with pBAD-yefM, pBAD-yoeB, and pBAD-yefMyoeB were cultured in LB broth supplemented with 100 μg/ml ampicillin (LB-Amp) and incubated at 37° C. overnight. Following incubation, cultures were diluted in fresh LB-Amp and their optical density was adjusted to approximately 0.01 (A600). Each culture was then divided into two equal volumes. One volume was supplemented with 0.2% L-arabinose to induce expression of the target gene and the second volume was supplemented with 0.2% D-glucose to suppress expression. All cultures were incubated at 37° C. and 200 rpm for up to 9 hours. Cell density was estimated periodically by optical absorbance at 600 nm. The effect of target gene induction on bacterial growth during the logarithmic growth phase was determined as described above with the exception that cultures were divided and supplemented with 0.2% L-arabinose, or 0.2% D-glucose at the time they had reached optical density of approximately 0.45 (A600).
The subject of data set [2] is E. coli TOP10. Briefly: Colony formation analysis of bacteria overexpressing YefM, YoeB or both. The following applies: L-arabinose 0.0005-0.2% on LB-Amp agar, 37° C., 20 hours.
Experimental: as §1
Colony formation analysis: E. coli TOP10 bacteria harboring pBAD-yefM, pBAD-yoeB, or pBAD-yefMyoeB, were cultured in LB-Amp and incubated at 37° C. overnight Following incubation the cultures were diluted to an A600 of 0.01 in a fresh LB-Amp and incubated at 37° C. until an absorbance of 0.5 at A600 was reached. The cultures were then diluted in ten-fold dilutions steps and applied as 5 μl droplets on LB-Amp agar plates containing L-arabinose at a concentration gradient of 0.2%, 0.1%, 0.05%, 0.02%, 0.005% and 0.0005%. An LB-Amp agar plate containing 0.2% glucose was used as a negative control. All plates were incubated at 37° C. for at least 20 hours.
Data set [3] in a line: Thermal denaturation monitored by CD ellipticity at 222 nm. The data set is classed as physicochemical. The following applies: PBS pH 7.3. The procedure: Circular Dichroism (CD): CD spectra were obtained by using an AVIV 202 spectrapolarimeter equipped with temperature-controlled sample holder and a 5 mm path length cuvette. Mean residual ellipticity, [θ], was calculated as, [θ]=[100×θ×m]/[c×L]
The identity of YefM and YoeB-His was verified using protein spots isolation from Coomassie blue stained gels and was accomplished by mass spectrometry, according to established protocols (Bandow, J. E., Becher, D., Buttner, K, Hochgrafe, F., Freiberg, C., Brotz, H. and Hecker, M. (2003) Proteomics. 3, 299-306). Briefly, protein spots were excised from stained gels and the gel pieces were treated trypsin solution (Pomega) for 16 h at 37° C. Peptides were extracted from gel onto a sample plate for MALDI-MS. Obtained peptides masses were determined in the positive ion reflector mode in a Voyager-DE STR mass spectrometer (Applied Biosystems). […] To determine the concentrations of YoeB-His and YefM polypeptides, tyrosine and tryptophan absorbance measurements in 0.1 M KOH were used. YefM concentration was calculated using the extinction coefficient of 2381 M^−1 cm^−1 at 293.2 nm for single tyrosine (4 tyr). YoeB-His concentration was calculated using extinction coefficient at 280 nm of 1507 M^−1 cm^−1 for single tyrosine (6 tyr) and 5377 M^−1 cm^−1 for single tryptophan (4 trp). […]

For data set [4] the following is noted: boiled 10 minutes, supernatant (FIG. 4D).

Take `CC[C@H](C)[C@H](NC(=O)[C@@H](NC(=O)[C@@H](N)CCCNC(=N)N)[C@@H](C)O)C(=O)N[C@@H](CO)C(=O)N[C@@H](Cc1ccc(O)cc1)C(=O)N[C@@H](CO)C(=O)N[C@@H](CCC(=O)O)C(=O)N[C@@H](C)C(=O)N[C@@H](CCCNC(=N)N)C(=O)N[C@@H](CCC(N)=O)C(=O)N[C@@H](CC(N)=O)C(=O)N[C@@H](CC(C)C)C(=O)N[C@@H](CO)C(=O)O` [YefM11-23]: the “binding of YoeB-GST to arrayed tridecamer peptide” value at GST-YoeB fusion protein (high stringency, single amino-acid shift between peptides (FIG. 6B)) is on record as “best binding”; on GST-YoeB fusion protein (low stringency, two amino-acids shift between peptides (FIG. 6A)) it was “positively identified”.

B1: YoeB: E. coli toxin polypeptide, SEQ ID NO: 77 (protein, listed as Escherichia coli)
chain: MKLIWSEESWDDYLYWQETDKRIVKKINELIKDTRRTPFEGKGKPEPLKHNLSGFWSRRITEEHRLVYAVTDDSLLIAACRYHY
Take B1: the “growth of bacteria overexpressing the polypeptide” value (shortened to “growth”) in the data set on E. coli TOP10 [1] is “substantially reduced”. For the same molecule, the “bacterial colony formation on overexpression” value (from here on “bacterial colony formation”) with E. coli TOP10 [2] is reported as “inhibited”.

B2: YoeB-His: YoeB toxin expressed in fusion to myc-epitope and his-tag (protein)
chain: MKLIWSEESWDDYLYWQETDKRIVKKINELIKDTRRTPFEGKGKPEPLKHNLSGFWSRRITEEHRLVYAVTDDSLLIAACRYHY
modifications: left off: small tags and cut ends
For B2, the “polypeptide melting point (TM)” value in data set [3] is “approximately 60 °C”.

B3: YefM and YoeB: toxin-antitoxin pair co-overexpressed in E. coli TOP10 from pBAD-yefMyoeB (protein, UniProt P69346 1-83; P69348 1-84, looked up)
Antitoxin YefM: MRTISYSEARQNLSATMMKAVEDHAPILITRQNGEACVLMSLEEYNSLEETAYLLRSPANARRLMDSIDSLKSGKGTEKDIIE
Toxin YoeB: MKLIWSEESWDDYLYWQETDKRIVKKINELIKDTRRTPFEGKGKPEPLKHNLSGFWSRRITEEHRLVYAVTDDSLLIAACRYHY
As for B3, the “growth” value with E. coli TOP10 [1] was “remained normal”. The “bacterial colony formation” value in the data set with E. coli TOP10 [2] is “unaffected”.

B4: YefM: E. coli antitoxin polypeptide, 92 amino acids, SEQ ID NO: 76, natively unfolded (protein, listed as Escherichia coli)
chain: MNCTKEEIDMRTISYSEARQNLSATMMKAVEDHAPILITRQNGEACVLMSLEEYNSLEETAYLLRSPANARRLMDSIDSLKSGKGTEKDIIE
Consider B4, for which the solubility during boiling result in data set [4] was “extraordinary solubility”. In addition, the “growth” value with E. coli TOP10 [1] is “substantially reduced”. For the same molecule, in the data set on E. coli TOP10 [2], the “bacterial colony formation” value is recorded as “inhibited”.
